The data set is described as follows: Isoprene synthase activity vs temperature (DMAPP assay, 25 to 80 C). The class given is biochemical. The note with it: FIG. 58. The protocol: The activity of wild type IspS and variants IspS-L494P and IspS-T536F was measured across a spectrum of temperatures. Individual DMAPP assays were performed at 5° C. intervals from 25° C. to 80° C. by incubating the vials in a pre-heated water bath.
The following reaction mixture was used for the DMAPP assay: 25 μL purified protein, 5 μL MgCl2 (1 M), 5 μL DMAPP (100 mM), and 65 μL 100 mM Tris pH 8, 100 mM NaCl for a total volume of 100 μL. The reaction is performed at the specified temperature for 15 minutes in a gas tight 1.8 mL GC tube. Reactions are terminated by the addition of 100 μL 500 mM EDTA (pH 8). The amount of isoprene produced was measured by GC/MS.
The analysis was performed using an Agilent 6890 GC/MS system interfaced with a CTC Analytics CombiPAL autosampler operating in headspace mode. An Agilent HP-5MS GC/MS column (30 m×0.25 mm; 0.25 μm film thickness) was used for separation of analytes. The sampler was set up to inject 500 μL of headspace gas. The GC/MS method utilized helium as the carrier gas at a flow of 1 ml/min. The injection port was held at 250° C. with a split ratio of 50:1. The oven temperature was held at 37° C. for the […] duration of the analysis. The Agilent 5793N mass selective detector was run in single ion monitoring (SIM) mode on m/z 67. The detector was switched off from 1.4 to 1.7 minutes to allow the elution of permanent gases.

Experimental findings from patent publication US9175313B2, “Three-dimensional structure of isoprene synthase and its use thereof for generating variants” (Danisco US Inc., priority 2009, dated 2015) are described below.

B1: T536F: P. alba IspS variant T536F; pDW87, strain DW363, SEQ ID NO: 95 (protein)
chain: MEARRSANYEPNSWDYDYLLSSDTDESIEVYKDKAKKLEAEVRREINNEKAEFLTLLELIDNVQRLGLGYRFESDIRGALDRFVSSGGFDAVTKTSLHGTALSFRLLRQHGFEVSQEAFSGFKDQNGNFLENLKEDIKAILSLYEASFLALEGENILDEAKVFAISHLKELSEEKIGKELAEQVNHALELPLHRRTQRLEAVWSIEAYRKKEDANQVLLELAILDYNMIQSVYQRDLRETSRWWRRVGLATKLHFARDRLIESFYWAVGVAFEPQYSDCRNSVAKMFSFVTIIDDIYDVYGTLDELELFTDAVERWDVNAINDLPDYMKLCFLALYNTINEIAYDNLKDKGENILPYLTKAWADLCNAFLQEAKWLYNKSTPTFDDYFGNAWKSSSGPLQLVFAYFAVVQNIKKEEIENLQKYHDTISRPSHIFRLCNDLASASAEIARGETANSVSCYMRTKGISEELATESVMNLIDETWKKMNKEKLGGSLFAKPFVETAINLARQSHCTYHNGDAHTSPDELTRKRVLSVIFEPILPFERENLYFQGLEHHHHHH
For the molecule B1, the “temperature activity ratio curve (specific activity at a given temperature / at 35° C.), in words” value was “increased activity and thermostability”.
